Data on nine molecules can be found in publication PMC2731897.

Sequences and labels used below:
T1: GroEL1 (untagged) (Mycobacterium tuberculosis) (UniProt P9WPE9)
T1 sequence: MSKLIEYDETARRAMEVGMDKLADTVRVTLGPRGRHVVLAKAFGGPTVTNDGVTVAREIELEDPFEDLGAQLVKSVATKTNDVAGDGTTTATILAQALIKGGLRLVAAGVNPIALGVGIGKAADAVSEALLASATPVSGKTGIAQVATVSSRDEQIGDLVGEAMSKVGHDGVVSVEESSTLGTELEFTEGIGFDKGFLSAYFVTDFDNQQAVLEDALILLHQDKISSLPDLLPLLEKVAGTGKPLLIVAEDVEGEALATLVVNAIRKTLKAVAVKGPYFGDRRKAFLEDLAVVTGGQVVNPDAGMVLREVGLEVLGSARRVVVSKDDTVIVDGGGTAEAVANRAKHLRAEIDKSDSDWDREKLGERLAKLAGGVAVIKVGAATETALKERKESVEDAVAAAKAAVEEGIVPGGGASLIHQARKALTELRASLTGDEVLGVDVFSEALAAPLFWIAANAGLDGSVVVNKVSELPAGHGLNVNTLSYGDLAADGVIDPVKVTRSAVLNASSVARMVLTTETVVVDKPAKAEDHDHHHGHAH

T2: GroEL1 (untagged) (Mycobacterium tuberculosis, UniProt P9WPE9 1-539)
T2 sequence: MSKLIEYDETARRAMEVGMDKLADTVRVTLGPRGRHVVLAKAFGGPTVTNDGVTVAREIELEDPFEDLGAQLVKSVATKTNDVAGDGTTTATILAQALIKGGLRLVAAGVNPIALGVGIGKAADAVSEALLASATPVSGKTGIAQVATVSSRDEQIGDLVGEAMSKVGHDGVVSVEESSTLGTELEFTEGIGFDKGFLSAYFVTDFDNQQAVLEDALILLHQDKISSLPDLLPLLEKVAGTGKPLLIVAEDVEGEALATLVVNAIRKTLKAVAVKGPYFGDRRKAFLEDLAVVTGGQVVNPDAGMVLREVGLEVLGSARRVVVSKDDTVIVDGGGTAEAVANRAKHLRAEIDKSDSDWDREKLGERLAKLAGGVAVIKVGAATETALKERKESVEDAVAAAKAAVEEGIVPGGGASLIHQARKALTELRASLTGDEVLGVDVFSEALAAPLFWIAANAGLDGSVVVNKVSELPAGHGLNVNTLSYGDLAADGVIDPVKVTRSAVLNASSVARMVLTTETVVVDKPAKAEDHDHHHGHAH

B1: CIRCE2FR (dsDNA)
DNA 1: TTAGCCGATTGCCATCTAGCACTCTATACATGAGAGTGCTAGCACTCAAGGGCGCCCCCT
DNA 2: AGGGGGCGCCCTTGAGTGCTAGCACTCTCATGTATAGAGTGCTAGATGGCAATCGGCTAA
B2: CIRCE2F ss (ssDNA)
DNA: TTAGCCGATTGCCATCTAGCACTCTATACATGAGAGTGCTAGCACTCAAGGGCGCCCCCT
B3: MutO7 ss (ssDNA)
DNA: TTAGCCGATTGCCATCACGCACTACGTAGTGTCTATGTATCGATCTCAAGGGCGCCCCCT
B4: MutO4 ss (ssDNA)
DNA: GTGCACTTAGCCGATTGCCATTCTATACATGAGACACTCAAGGGCGCCCCCTCTAGCTAG
B5: MutO3 ss (ssDNA)
DNA: TTAGCCGATTGCCATTCCTGTACAAATACATGAGAGTGCTAGCACTCAAGGGCGCCCCCT
B6: MutO5 ss (ssDNA)
DNA: TTAGCCGATTGCCATCTAGCACTCTGCGCCCCCTATACATGAGAGTGCTAGCACTCAAGG
B7: MutO6 ss (ssDNA)
DNA: TTAGCCGATTGCCATCTAGCACTCTATACATGTTGGAACGGACACTCAAGGGCGCCCCCT
B8: MutO2 ss (ssDNA)
DNA: ATACTTAGCCGATTGCCATCTAGCACTCTAGAGTGCTAGCACTCAAGGGCGCCCCCTATG

The first data set deals with T1, GroEL1 (untagged) (Mycobacterium tuberculosis). The data set is described as follows: EMSA.
Regarding “TATATAGTCGACCCAGGTGATTCGGCATTCGTCCGCGCCCTCGCGCCGTCGTCGCGGGTGCCGACGCAGGGGTTAGCCGATTGCCATCTAGCACTCTATACATGAGAGTGCTAGCACTCAAGGGCGCCCCCTTGCTTCCTGGTTGCCAGCGTGTCTCTAGATATATA (double strand) [groES upstream region, 140 bp]”, the binding result is reported as “binds”.

The target in another data set is T2, GroEL1 (untagged). The data set is described as follows: EMSA. Background: A gel shift assay detects complexes by their altered migration in electrophoresis.
A word on the Kd: it is the equilibrium constant for the complex coming apart. Lower therefore signals a tighter complex. B1 had a Kd of 0.143 µM.

In another data set the target is T2, GroEL1 (untagged). The data set is described as follows: EMSA. The source holds these as a separate data set.
Take B2: the binding result was “binds”. Take B3: the binding result is recorded as “binds”. For B4, the binding result is “binds”. As to B5, the binding result was “binds”. Same read-out and setting: then B6, with “binds”; and B7, with “binds”; and B8, with “binds”.
